Source: PMC2773007

Molecular target: Dvl2 PRR2 mutant (Δ370–376), FLAG-tagged (human) (UniProt O14641)
Sequence of UniProt O14641 (O14641 other isoform, or with tags, fused parts or gaps mutant): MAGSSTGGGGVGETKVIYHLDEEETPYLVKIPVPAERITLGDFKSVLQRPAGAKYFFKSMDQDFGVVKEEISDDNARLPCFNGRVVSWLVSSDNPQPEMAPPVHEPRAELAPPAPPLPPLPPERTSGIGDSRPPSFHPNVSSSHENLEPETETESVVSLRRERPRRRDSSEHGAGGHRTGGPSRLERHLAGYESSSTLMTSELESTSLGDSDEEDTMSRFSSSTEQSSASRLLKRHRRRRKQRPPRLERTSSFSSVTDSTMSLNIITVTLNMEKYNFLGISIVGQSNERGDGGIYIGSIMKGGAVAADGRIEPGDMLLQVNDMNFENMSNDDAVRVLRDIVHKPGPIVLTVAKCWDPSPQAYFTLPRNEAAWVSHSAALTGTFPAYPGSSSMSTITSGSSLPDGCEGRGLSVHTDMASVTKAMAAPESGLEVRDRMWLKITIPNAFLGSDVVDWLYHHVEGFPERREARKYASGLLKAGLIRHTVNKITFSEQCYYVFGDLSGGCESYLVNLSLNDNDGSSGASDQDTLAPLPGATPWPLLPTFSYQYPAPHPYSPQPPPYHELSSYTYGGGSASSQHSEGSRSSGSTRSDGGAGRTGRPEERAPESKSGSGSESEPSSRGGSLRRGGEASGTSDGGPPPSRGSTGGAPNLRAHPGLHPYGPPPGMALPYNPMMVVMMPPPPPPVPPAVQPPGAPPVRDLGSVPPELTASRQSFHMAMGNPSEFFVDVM

HA-tagged Grb2 (human growth factor receptor-bound-2) (from UniProt P62993 1-217) (natural protein)
sTF LEF/TCF luciferase reporter in HEK293 cells, co-expression of the Dvl2 mutant and Grb2: 60 % decrease
